Reference: paper PMC12328635

Biological target: T1, SC35 (GST-SC35) (Populus tomentosa, UniProt A0AAD6QWB7 1-302)
T1 sequence: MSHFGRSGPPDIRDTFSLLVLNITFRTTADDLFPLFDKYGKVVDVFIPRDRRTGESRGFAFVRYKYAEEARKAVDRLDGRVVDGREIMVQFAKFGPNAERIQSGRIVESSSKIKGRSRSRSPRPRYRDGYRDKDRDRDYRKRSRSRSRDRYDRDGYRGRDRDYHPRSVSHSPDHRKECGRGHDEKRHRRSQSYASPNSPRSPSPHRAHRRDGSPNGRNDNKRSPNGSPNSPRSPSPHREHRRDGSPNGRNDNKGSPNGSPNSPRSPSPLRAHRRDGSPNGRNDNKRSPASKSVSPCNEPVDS
Assay: EMSA

UUAGAGAGAGUGGAAUUAGUGGGUUUGGUU (ssRNA) [Probe2]: binds.

CAUUAUGUUGAGGAAUUAGAAGAUAAGGUG (ssRNA) [Probe1]: binds.

UUAGAGAGAGUCCUUAAUCUGGGUUUGGUU (ssRNA) [Mutation-Probe2]: no binding.

CAUUAUGUUGACCUUAAUCAAGAUAAGGUG (ssRNA) [Mutation-Probe1]: no binding.
